Holding throughout (test): EMSA
Settings in all cases: 10 mM Tris-HCl pH 8, 50 mM KCl, 0.5 mM EDTA, 10% glycerol, 0.5 mM DTT, 10 nM DNA, 25°C 25 min; 8% PAGE in 0.5x TBE
Background: In EMSA bound probe runs differently from free probe, usually more slowly.

For data set [1], the target named is T1, SydR' C16S (SC) C16S (Sinorhizobium meliloti Rm2011) (UniProt Q92XY2).
T1 sequence: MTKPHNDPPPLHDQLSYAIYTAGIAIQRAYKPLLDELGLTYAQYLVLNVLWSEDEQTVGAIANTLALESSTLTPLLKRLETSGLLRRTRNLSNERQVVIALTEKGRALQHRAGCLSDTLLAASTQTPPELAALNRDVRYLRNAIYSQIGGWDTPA

Data set [2] concerns the target T2, SydR' C16S&C114S (SS) C16S;C114S (Sinorhizobium meliloti Rm2011) (UniProt Q92XY2).
T2 sequence: T1 sequence with C114S

Data set [3] deals with T3, SydR' C114S (CS) C114S (Sinorhizobium meliloti Rm2011) (UniProt Q92XY2).
T3 sequence: T1 sequence with S16C, C114S

Numbering of substitutions follows the chain as printed.

In the case of “TCTGGGCTCCTTTGCGCACCAATATAATCAAGATTACCGCGAAAACCAATATCGCGATAAGAGATATGTTGACGAGCAGTTCAATATCTGACAACTTAAATATATCGCGATAACAGTTATCGCTATCAACGAAAGGAAAAAGCC (double strand) [sydR-SMa2023 intergenic region, 144 bp]”, the binding entry in data set [1] was “binds more weakly”; in data set [2], “binds more weakly”; in data set [3], “binds”.

The record behind these values is PMC11633110.
